Earlier results in patent US9522171B2 (priority 2010, dated 2016).

What was measured:
[1] = target: T1, C5 (Homo sapiens, UniProt P01031); conditions: human serum; cited from earlier work
T1 construct: from tissue; host or cells: human serum

[2] = target: T2, C5 (Rattus norvegicus, UniProt P08650); conditions: rat serum; cited from earlier work
T2 construct: from tissue; host or cells: rat serum

[3] = tested on: alternative, classical and lectin complement pathways; conditions: cited from earlier work
[4] = target: T3, C5 (Mus musculus, UniProt P06684); conditions: mouse serum; cited from earlier work
T3 construct: from tissue; host or cells: mouse serum
T3 sequence (P06684 19-1680): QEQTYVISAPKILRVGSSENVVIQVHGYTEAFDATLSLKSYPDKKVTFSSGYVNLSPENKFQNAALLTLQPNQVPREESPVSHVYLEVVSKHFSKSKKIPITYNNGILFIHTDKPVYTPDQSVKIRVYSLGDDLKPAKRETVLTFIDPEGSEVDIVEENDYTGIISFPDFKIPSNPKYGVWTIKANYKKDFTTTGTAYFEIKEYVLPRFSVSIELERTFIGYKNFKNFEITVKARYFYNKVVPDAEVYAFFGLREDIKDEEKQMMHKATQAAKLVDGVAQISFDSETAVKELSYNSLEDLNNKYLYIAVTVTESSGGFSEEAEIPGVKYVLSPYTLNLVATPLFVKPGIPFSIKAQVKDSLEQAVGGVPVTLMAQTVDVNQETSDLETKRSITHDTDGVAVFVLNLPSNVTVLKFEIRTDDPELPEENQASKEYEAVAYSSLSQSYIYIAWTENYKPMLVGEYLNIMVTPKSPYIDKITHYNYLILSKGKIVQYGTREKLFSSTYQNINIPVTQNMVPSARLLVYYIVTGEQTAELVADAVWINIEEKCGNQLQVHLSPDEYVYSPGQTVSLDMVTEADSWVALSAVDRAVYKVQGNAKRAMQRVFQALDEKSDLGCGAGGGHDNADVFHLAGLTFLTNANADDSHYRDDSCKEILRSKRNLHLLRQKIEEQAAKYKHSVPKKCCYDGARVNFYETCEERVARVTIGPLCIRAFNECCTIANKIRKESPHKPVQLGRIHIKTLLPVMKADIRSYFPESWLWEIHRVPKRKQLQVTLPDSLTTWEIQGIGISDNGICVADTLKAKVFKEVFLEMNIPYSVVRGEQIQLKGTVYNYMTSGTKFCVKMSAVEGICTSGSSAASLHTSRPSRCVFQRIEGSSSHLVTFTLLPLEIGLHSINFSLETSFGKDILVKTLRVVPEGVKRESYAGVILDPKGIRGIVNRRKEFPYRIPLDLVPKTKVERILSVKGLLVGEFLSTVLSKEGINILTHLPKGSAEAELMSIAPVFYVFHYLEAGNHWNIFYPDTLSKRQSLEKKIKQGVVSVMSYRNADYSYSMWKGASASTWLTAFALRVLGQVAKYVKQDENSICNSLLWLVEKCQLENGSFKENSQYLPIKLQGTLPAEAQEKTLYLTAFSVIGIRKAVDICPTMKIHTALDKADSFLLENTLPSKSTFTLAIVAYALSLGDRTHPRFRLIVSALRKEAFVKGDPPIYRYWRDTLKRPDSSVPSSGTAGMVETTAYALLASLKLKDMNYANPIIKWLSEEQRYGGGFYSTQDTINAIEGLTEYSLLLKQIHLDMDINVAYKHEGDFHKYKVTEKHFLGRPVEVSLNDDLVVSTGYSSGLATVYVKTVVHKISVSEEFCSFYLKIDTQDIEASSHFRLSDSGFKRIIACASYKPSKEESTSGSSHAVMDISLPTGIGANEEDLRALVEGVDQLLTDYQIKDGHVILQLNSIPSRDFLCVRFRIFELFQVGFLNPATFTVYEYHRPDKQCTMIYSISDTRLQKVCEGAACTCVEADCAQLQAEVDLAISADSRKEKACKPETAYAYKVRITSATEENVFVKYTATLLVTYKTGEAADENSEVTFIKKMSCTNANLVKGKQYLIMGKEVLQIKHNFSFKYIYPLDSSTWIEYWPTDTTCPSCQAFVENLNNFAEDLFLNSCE

T1 sequence (P01031 19-1676): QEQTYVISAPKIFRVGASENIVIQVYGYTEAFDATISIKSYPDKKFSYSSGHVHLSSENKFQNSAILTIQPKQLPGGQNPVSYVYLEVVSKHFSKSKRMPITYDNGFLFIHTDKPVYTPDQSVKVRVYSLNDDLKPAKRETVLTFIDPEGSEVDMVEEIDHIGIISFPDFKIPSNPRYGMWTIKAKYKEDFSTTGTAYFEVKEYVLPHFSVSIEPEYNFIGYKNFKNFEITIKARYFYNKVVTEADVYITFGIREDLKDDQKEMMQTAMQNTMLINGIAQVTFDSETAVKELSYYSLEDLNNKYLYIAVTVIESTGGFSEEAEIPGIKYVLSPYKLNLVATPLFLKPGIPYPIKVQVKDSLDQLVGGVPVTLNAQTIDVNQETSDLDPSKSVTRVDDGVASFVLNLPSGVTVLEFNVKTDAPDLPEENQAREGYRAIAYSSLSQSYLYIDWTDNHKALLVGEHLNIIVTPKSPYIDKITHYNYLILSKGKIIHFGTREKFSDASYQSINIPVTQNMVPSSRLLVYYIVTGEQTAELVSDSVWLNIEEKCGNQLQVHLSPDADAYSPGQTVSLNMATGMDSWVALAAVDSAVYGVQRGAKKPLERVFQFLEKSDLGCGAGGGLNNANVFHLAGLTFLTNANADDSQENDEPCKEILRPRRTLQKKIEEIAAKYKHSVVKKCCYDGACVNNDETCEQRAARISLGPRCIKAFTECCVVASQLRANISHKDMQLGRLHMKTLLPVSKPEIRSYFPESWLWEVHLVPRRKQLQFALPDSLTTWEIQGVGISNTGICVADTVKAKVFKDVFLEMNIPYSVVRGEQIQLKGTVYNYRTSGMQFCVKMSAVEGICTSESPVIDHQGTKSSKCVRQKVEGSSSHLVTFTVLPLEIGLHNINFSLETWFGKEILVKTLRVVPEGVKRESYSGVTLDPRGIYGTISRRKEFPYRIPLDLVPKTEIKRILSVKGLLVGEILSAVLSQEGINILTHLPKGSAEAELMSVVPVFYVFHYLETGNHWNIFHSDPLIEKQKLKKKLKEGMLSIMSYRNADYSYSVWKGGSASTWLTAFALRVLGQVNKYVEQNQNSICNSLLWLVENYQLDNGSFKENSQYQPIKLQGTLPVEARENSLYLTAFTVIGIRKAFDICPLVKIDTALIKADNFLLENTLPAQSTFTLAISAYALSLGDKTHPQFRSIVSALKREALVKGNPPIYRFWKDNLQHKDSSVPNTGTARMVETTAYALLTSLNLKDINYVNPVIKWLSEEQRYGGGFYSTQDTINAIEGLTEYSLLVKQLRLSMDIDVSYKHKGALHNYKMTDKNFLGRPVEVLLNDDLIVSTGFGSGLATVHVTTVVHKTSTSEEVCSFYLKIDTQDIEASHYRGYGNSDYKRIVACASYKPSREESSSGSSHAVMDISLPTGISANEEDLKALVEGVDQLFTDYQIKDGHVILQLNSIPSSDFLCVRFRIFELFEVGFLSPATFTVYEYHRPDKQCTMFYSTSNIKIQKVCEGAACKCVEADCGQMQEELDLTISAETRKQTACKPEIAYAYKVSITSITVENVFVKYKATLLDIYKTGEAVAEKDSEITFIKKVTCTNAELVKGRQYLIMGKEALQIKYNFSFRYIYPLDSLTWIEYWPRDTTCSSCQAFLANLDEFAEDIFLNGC
T2 sequence (P08650 19-1681): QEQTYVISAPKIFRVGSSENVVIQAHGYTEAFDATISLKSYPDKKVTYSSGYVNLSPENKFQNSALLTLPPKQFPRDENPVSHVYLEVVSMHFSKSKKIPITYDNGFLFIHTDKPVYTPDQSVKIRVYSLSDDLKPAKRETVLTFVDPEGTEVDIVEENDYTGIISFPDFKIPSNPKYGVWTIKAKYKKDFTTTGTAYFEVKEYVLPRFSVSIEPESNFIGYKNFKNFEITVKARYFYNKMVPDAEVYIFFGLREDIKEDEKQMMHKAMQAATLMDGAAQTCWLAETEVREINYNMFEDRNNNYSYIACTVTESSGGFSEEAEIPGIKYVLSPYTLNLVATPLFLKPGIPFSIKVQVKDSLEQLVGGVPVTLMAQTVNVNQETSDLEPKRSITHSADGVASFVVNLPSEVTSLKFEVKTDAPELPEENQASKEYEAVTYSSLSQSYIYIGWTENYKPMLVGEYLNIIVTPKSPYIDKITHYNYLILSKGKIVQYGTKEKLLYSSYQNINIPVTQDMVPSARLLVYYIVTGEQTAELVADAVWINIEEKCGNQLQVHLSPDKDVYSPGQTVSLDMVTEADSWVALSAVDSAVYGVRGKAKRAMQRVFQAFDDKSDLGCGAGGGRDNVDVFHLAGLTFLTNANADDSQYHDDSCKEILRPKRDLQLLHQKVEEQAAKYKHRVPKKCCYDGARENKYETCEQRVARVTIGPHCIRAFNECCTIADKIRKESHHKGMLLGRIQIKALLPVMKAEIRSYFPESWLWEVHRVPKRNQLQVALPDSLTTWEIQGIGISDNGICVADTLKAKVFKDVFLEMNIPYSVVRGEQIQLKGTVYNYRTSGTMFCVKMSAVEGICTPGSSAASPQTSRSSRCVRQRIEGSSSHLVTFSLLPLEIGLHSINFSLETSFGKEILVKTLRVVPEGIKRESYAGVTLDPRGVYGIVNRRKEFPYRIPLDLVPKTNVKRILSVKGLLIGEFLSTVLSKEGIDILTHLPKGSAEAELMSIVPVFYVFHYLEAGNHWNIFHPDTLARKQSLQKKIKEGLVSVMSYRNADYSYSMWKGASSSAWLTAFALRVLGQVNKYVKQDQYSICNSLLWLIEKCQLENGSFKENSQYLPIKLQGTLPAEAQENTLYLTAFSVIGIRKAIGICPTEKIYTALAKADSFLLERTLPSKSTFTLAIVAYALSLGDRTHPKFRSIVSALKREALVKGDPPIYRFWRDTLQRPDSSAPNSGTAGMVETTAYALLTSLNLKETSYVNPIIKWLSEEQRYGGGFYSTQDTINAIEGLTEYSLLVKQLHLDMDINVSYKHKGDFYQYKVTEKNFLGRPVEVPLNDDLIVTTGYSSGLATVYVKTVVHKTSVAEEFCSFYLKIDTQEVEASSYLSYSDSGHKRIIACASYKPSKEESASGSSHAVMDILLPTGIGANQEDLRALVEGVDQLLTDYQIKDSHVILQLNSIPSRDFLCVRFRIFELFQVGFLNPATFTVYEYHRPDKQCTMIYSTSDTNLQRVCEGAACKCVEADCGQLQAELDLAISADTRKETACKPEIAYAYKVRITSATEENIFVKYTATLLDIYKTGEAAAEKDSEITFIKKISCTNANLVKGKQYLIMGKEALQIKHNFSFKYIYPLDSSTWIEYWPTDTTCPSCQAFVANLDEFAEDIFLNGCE

## EV576: Lipocalin protein from salivary glands of the tick Ornithodoros moubata, sequence of FIG. 2; binds complement C5 and LTB4
[1]
  IC50 for binding C5 and preventing its cleavage by C5 convertase: approximately 0.02 mg/ml
[2]
  IC50 for binding C5 and preventing its cleavage by C5 convertase: approximately 0.02 mg/ml
[3]
  inhibition of the complement system: inhibits the alternative, classical and lectin complement pathways
[4]
  IC50 for binding C5 and preventing its cleavage by C5 convertase: approximately 0.02 mg/ml
